Results taken from patent US20050142114A1.

How the values were obtained:
[1] = biological target: CD209 (DC-SIGN) on monocyte-derived dendritic cells (human) (UniProt Q9NNX6); assay: flow cytometry; calcein signal of immunoliposomes relative to FITC signal of the mAb
[2] = biological target: CD209 (DC-SIGN) on monocyte-derived dendritic cells (human) (UniProt Q9NNX6); assay: flow cytometry, right shift of the whole histogram vs. control peak (FIG. 1)
[3] = biological target: CD209 (DC-SIGN) on monocyte-derived dendritic cells (human) (UniProt Q9NNX6); assay: flow cytometry, percent of MoDCs positive for calcein after monospecific anti-CD209 protein A immunoliposomes (FIG. 4A)

Chain of UniProt Q9NNX6 (Q9NNX6 whole entry): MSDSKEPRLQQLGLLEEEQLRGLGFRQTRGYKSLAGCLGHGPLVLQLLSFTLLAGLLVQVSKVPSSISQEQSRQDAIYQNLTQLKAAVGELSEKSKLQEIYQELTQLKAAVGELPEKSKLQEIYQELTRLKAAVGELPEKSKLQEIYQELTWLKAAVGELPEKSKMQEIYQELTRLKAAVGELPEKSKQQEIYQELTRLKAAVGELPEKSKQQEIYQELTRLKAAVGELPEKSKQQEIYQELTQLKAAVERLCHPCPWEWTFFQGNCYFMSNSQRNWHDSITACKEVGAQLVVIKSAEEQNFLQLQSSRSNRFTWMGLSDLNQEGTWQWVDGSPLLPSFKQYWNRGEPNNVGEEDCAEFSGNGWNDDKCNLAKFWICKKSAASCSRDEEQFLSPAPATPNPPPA

TEILS (immunoliposomal net targeting efficacy) [1]: 110% | percent of cells targeted [2]: 100% | liposomal targeting efficacy [3]: 83.3%
Substance: CD209-specific mAb derived from clone 120507 (IgG2b), R&D Systems (antibody)
